B1: Homeobox protein cut-like 1, residues 548 to 629; numbered along this chain, P39880 (parent)
chain: GEEMDTAEIARQVKEQLIKHNIGQRIFGHYVLGLSQGSVSEILARPKPWNKLTVRGKEPFHKMKQFLSDEQNILALRSIQGR

Variants of: B1
Experiment: abundance fitness (aPCA) (normalised: wild type 0, dead -1); higher = more abundant; growth selection in yeast, the domain comes from the species named
Conditions: Homo sapiens

Abundance fitness, by site and new letter:
G81: V 0.024; T 0.037; K -0.068; Q 0.095; L -0.097; C 0.027; A 0.044; N 0.117; D 0.043; I 0.008; E 0.105; W -0.077; F -0.138; H 0.04; Y -0.163; P -0.103; R -0.021; S -0.028
R82: S 0.011; M -0.047; Y -0.079; E 0.047; Q 0.172; W -0.149; A 0.013; C -0.054; P 0.065; D -0.092; G 0.117; T -0.039; V 0.024; H 0.063; L -0.06; N 0.076; K 0.123
Q80: W -0.307; S -0.017; H -0.075; G -0.06; M -0.079; E 0; F -0.278; P -0.098; K -0.12; I -0.098; L -0.126; V 0; Y -0.188; T -0.095; R -0.176; N -0.026

— the Human Domainome abundance scans (Beltran et al. 2025)
